Patent publication US20150368316A1 (ALBERT EINSTEIN COLLEGE OF MEDICINE OF YESHIVA UNIVERSITY, published 2015)

T1: mouse PD-L2-Ig (mouse, UniProt Q9WUL5 20-219)
T1 construct: also called mPD-L2-Ig; not shown: Ig part of the fusion
T1 sequence (looked up): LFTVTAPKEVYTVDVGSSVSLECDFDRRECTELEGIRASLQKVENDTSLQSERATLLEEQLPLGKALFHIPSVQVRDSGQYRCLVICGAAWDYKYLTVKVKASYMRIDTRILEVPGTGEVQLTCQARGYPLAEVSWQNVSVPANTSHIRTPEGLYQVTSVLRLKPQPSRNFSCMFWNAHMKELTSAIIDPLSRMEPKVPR

T2: human PD-L2-Ig (immobilized) (human, UniProt Q9BQ51 20-219)
T2 construct: also called huPD-L2; huPD-L2-Ig; not shown: Ig part of the fusion
T2 sequence (looked up): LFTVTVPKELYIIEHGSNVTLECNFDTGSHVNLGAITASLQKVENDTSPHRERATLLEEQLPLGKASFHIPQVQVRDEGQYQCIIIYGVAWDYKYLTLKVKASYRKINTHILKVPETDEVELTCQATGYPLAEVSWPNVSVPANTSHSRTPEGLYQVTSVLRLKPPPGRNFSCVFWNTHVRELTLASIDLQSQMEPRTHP

B1: mouse PD-1 (wild type) (receptor, UniProt Q02242 34-150, looked up)
chain: SLTFYPAWLTVSEGANATFTCSLSNWSEDLMLNWNRLSPSNQTEKQAAFCNGLSQPVQDARFQIIQLPNRHDFHMNILDTRRNDSGIYLCGAISLHPKAKIEESPGAELVVTERILE
notes: also called m PD-1
B2: mouse HA PD-1 (high-affinity mutant) (receptor, UniProt Q02242 34-150, looked up)
chain: SLTFYPAWLTVSEGANATFTCSLSNWSEDLMLNWNRLSPSNQTEKQAAFCNGLSQPVQDARFQIIQLPNRHDFHMNILDTRRNDSGIYLCGAISLHPKLKIEESPGAELVVTERILE
notes: also called m HA PD-1

Key:
Test in all cases: Kd from fitting (SPR)
[1] = molecular target: T3, human PD-L1-Ig (immobilized) (human, UniProt Q9NZQ7 19-238)
T3 construct: also called huPD-L1; huPD-L1-Ig; not shown: Ig part of the fusion
T3 sequence (Q9NZQ7 19-238): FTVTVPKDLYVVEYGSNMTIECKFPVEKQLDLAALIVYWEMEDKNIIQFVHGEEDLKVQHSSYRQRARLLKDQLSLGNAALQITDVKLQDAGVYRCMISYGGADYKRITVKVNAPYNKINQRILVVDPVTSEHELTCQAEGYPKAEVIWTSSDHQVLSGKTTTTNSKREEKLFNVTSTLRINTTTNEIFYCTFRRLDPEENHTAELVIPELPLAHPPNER

mouse PD-L2-Ig = molecular target: T1, mouse PD-L2-Ig
[2] = molecular target: T2, human PD-L2-Ig (immobilized)
mouse PD-L1-Ig = molecular target: T4, mouse PD-L1-Ig (mouse, UniProt Q9EP73 19-238)
T4 construct: also called mPD-L1-Ig; not shown: Ig part of the fusion
T4 sequence (Q9EP73 19-238): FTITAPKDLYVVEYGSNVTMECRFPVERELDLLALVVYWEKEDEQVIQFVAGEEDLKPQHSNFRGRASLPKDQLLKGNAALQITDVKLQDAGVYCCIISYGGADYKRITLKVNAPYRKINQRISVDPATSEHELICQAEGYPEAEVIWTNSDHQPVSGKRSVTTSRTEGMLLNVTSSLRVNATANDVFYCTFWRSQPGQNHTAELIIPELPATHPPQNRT

Binder	Kd [1]	Kd (mouse PD-L2-Ig)	Kd [2]	Kd (mouse PD-L1-Ig)
B1	4020 nM	2800 nM	10700 nM	–
B2	480 nM	470 nM	1180 nM	2780 nM
